Source: PMC5292672

Biological target: herpes virus entry mediator (HVEM) (human (endogenous in monocyte‐derived macrophages)) (UniProt Q92956)
Chain of UniProt Q92956 (Q92956 39-283): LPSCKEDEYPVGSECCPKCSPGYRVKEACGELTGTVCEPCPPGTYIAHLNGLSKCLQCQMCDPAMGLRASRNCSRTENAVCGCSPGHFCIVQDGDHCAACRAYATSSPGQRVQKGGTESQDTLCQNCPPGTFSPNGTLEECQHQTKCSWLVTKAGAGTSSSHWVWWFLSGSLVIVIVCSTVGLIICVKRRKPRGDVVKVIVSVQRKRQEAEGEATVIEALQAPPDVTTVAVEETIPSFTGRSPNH

Substance | decrease of staurosporin-induced caspase-3 activity in primary macrophages exposed before to HSV-1 gD, against staurosporin alone | decrease of staurosporin-induced caspase-3 activity in primary macrophages exposed before to CyPB, against staurosporin alone
recombinant His‐tagged HSV‐1 gD (glycoprotein D of herpes simplex virus‐1) (from UniProt Q69091 26-394) (natural protein) | 75% | –
recombinant human cyclophilin B (from UniProt P23284 34-216) (natural protein) | – | 75%
